T1: human Islet Amyloid Polypeptide (human)
T1 peptide: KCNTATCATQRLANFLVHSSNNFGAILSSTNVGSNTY


Target: T1, human Islet Amyloid Polypeptide
Experiment: cell-based or functional assay

Binder | cell viability of RIN-m cells (MTT viability assay)
KCNTATCVTQRLANFLLRSSNNLGAILSPTNVGSNTY [raccoon IAPP] | 72 % cell viability
KCNTATCATQRLANFLIRSSNNLGAILSPTNVGSNTY [cat IAPP] | ~62 % cell viability
KCNTATCATQRLANFLVRSSNNLGAILSPTNVGSNTY [seal IAPP] | ~62 % cell viability
KCNTATCVTQRLADFLVRSSSNIGAIYSPTNVGSNTY [chicken IAPP] | 76 % cell viability

Source: patent US20220119468A1, “AMYLOID PEPTIDE VARIANTS” (published 2022)
